These results are taken from US20060183195A1.

For assay [1], the target named is recombinant soluble human CD4 (human) (UniProt P01730). Put plainly: SPR, sCD4 amine-coupled to sensor chip, antibody flowed over.
The target of assay [2] is native human CD4 on the cell surface (human) (UniProt P01730). Kind of assay: flow cytometry, serial dilutions on SupT1 cells, half-maximal fluorescence.

Regarding Leu3a (antibody), the off-rate (koff) in assay [1] stood at 4.2e-05 s⁻¹. In assay [2], chimeric Leu3a (antibody) showed a Ka of 5e+09 M⁻¹.
